Laboratory results as given in patent US20130005646A1 (Novo Nordisk, published 2013).
Starred links: 1 amine or outer side, 2 acyl side, 3 side chain; linkers in the order of their positions; H or OH if unused. Positions of bridges follow the written chain, without caps; N, C: chain ends. Groups on a side chain read outwards from the residue. No end group written: not given here. *: point of attachment. C20 diacid = O=C(O)CCCCCCCCCCCCCCCCCCC(=O)*; 19‑carboxyheptadecanoyl = not defined here; C18 diacid = O=C(O)CCCCCCCCCCCCCCCCC(=O)*; γGlu = O=C(O)[C@H](CCC(=O)[*:2])N[*:1]; AEEA = NCCOCCOCC(=O)O

T1: human amylin 3(a) receptor (human calcitonin receptor + RAMP-3) (human, UniProt P30988 25-474; O60896 24-148)
T1 sequence (looked up) 1: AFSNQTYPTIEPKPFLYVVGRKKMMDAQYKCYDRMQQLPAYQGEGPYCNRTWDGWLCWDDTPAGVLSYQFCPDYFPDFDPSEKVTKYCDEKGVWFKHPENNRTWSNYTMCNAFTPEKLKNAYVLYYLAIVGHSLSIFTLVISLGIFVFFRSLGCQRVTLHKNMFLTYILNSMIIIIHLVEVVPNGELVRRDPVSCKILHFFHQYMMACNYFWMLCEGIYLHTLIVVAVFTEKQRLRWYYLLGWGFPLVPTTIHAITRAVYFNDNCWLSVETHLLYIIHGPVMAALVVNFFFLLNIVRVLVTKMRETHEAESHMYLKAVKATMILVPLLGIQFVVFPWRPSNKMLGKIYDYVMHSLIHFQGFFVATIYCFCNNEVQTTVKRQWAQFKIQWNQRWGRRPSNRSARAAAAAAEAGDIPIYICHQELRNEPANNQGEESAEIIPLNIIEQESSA
T1 sequence (looked up) 2: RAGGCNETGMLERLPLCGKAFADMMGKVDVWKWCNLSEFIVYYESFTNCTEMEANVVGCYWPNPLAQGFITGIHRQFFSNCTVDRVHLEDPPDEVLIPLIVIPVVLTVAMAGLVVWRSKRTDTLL

T2: human calcitonin (a) receptor (human, UniProt P30988 25-474)
T2 sequence (looked up): T1 sequence (looked up) 1

B1: N-alpha-[(S)-4-Carboxy-4-(19-carboxynonadecanoylamino)butyryl]-[Glu14,His17,Asp21,His35]-pramlintide (peptide)
peptide: {C20 diacid-γGlu}-KCNTATCATQRLAEFLHHSSDNFGPILPPTNVGSHTY-NH2
modifications: disulfide 2-7
SMILES: CC[C@H](C)[C@H](NC(=O)[C@@H]1CCCN1C(=O)CNC(=O)[C@H](Cc1ccccc1)NC(=O)[C@H](CC(N)=O)NC(=O)[C@H](CC(=O)O)NC(=O)[C@H](CO)NC(=O)[C@H](CO)NC(=O)[C@H](Cc1c[nH]cn1)NC(=O)[C@H](Cc1c[nH]cn1)NC(=O)[C@H](CC(C)C)NC(=O)[C@H](Cc1ccccc1)NC(=O)[C@H](CCC(=O)O)NC(=O)[C@H](C)NC(=O)[C@H](CC(C)C)NC(=O)[C@H](CCCNC(=N)N)NC(=O)[C@H](CCC(N)=O)NC(=O)[C@@H](NC(=O)[C@H](C)NC(=O)[C@@H]1CSSC[C@H](NC(=O)[C@H](CCCCN)NC(=O)CC[C@H](NC(=O)CCCCCCCCCCCCCCCCCCC(=O)O)C(=O)O)C(=O)N[C@@H](CC(N)=O)C(=O)N[C@@H]([C@@H](C)O)C(=O)N[C@@H](C)C(=O)N[C@@H]([C@@H](C)O)C(=O)N1)[C@@H](C)O)C(=O)N[C@@H](CC(C)C)C(=O)N1CCC[C@H]1C(=O)N1CCC[C@H]1C(=O)N[C@H](C(=O)N[C@@H](CC(N)=O)C(=O)N[C@H](C(=O)NCC(=O)N[C@@H](CO)C(=O)N[C@@H](Cc1c[nH]cn1)C(=O)N[C@H](C(=O)N[C@@H](Cc1ccc(O)cc1)C(N)=O)[C@@H](C)O)C(C)C)[C@@H](C)O
B2: N-alpha-[2-(2-{2-[2-(2-{2-[(S)-4-Carboxy-4-(19-carboxyheptadecanoylamino)butyrylamino]ethoxy}ethoxy)acetylamino]ethoxy}ethoxy)acetyl]-[His1,Glu14,His17,Ser21,Hi … (peptide)
peptide: {19‑carboxyheptadecanoyl-γGlu-AEEA-AEEA}-HCNTATCATQRLAEFLHHSSSNFGPILPPTNVGSHTY-NH2
modifications: disulfide 2-7; reading uncertain; also: printed as N-alpha-[2-(2-{2-[2-(2-{2-[(S)-4-Carboxy-4-(19-carboxyheptadecanoylamino)butyrylamino]ethoxy}ethoxy)acetylamino]ethoxy}ethoxy)acetyl]-[His1,Glu14,His17,Ser21,His35]-pramlintide
B3: N-epsilon25-[2-(2-{2-[2-(2-{2-[(S)-4-Carboxy-4-(17-carboxyheptadecanoylamino)butyrylamino]ethoxy}ethoxy)acetylamino]ethoxy}ethoxy)acetyl]-[Glu14,Lys25]-pramlint … (peptide)
peptide: KCNTATCATQRLAEFLVHSSNNFGK([AEEA-AEEA-γGlu-C18 diacid])ILPPTNVGSNTY-NH2
modifications: disulfide 2-7; N-terminus assumed
SMILES: CC[C@H](C)[C@H](NC(=O)[C@H](CCCCNC(=O)COCCOCCNC(=O)COCCOCCNC(=O)CC[C@H](NC(=O)CCCCCCCCCCCCCCCCC(=O)O)C(=O)O)NC(=O)CNC(=O)[C@H](Cc1ccccc1)NC(=O)[C@H](CC(N)=O)NC(=O)[C@H](CC(N)=O)NC(=O)[C@H](CO)NC(=O)[C@H](CO)NC(=O)[C@H](Cc1c[nH]cn1)NC(=O)[C@@H](NC(=O)[C@H](CC(C)C)NC(=O)[C@H](Cc1ccccc1)NC(=O)[C@H](CCC(=O)O)NC(=O)[C@H](C)NC(=O)[C@H](CC(C)C)NC(=O)[C@H](CCCNC(=N)N)NC(=O)[C@H](CCC(N)=O)NC(=O)[C@@H](NC(=O)[C@H](C)NC(=O)[C@@H]1CSSC[C@H](NC(=O)[C@@H](N)CCCCN)C(=O)N[C@@H](CC(N)=O)C(=O)N[C@@H]([C@@H](C)O)C(=O)N[C@@H](C)C(=O)N[C@@H]([C@@H](C)O)C(=O)N1)[C@@H](C)O)C(C)C)C(=O)N[C@@H](CC(C)C)C(=O)N1CCC[C@H]1C(=O)N1CCC[C@H]1C(=O)N[C@H](C(=O)N[C@@H](CC(N)=O)C(=O)N[C@H](C(=O)NCC(=O)N[C@@H](CO)C(=O)N[C@@H](CC(N)=O)C(=O)N[C@H](C(=O)N[C@@H](Cc1ccc(O)cc1)C(N)=O)[C@@H](C)O)C(C)C)[C@@H](C)O
B4: N-alpha-[(S)-4-Carboxy-4-(19-carboxynonadecanoylamino)butyryl]-Glu-Arg-[Glu1,Glu14,Arg17,Pro37]-pramlintide (peptide)
peptide: {C20 diacid-γGlu}-ERECNTATCATQRLAEFLRHSSNNFGPILPPTNVGSNTP-NH2
modifications: disulfide 4-9
SMILES: CC[C@H](C)[C@H](NC(=O)[C@@H]1CCCN1C(=O)CNC(=O)[C@H](Cc1ccccc1)NC(=O)[C@H](CC(N)=O)NC(=O)[C@H](CC(N)=O)NC(=O)[C@H](CO)NC(=O)[C@H](CO)NC(=O)[C@H](Cc1c[nH]cn1)NC(=O)[C@H](CCCNC(=N)N)NC(=O)[C@H](CC(C)C)NC(=O)[C@H](Cc1ccccc1)NC(=O)[C@H](CCC(=O)O)NC(=O)[C@H](C)NC(=O)[C@H](CC(C)C)NC(=O)[C@H](CCCNC(=N)N)NC(=O)[C@H](CCC(N)=O)NC(=O)[C@@H](NC(=O)[C@H](C)NC(=O)[C@@H]1CSSC[C@H](NC(=O)[C@H](CCC(=O)O)NC(=O)[C@H](CCCNC(=N)N)NC(=O)[C@H](CCC(=O)O)NC(=O)CC[C@H](NC(=O)CCCCCCCCCCCCCCCCCCC(=O)O)C(=O)O)C(=O)N[C@@H](CC(N)=O)C(=O)N[C@@H]([C@@H](C)O)C(=O)N[C@@H](C)C(=O)N[C@@H]([C@@H](C)O)C(=O)N1)[C@@H](C)O)C(=O)N[C@@H](CC(C)C)C(=O)N1CCC[C@H]1C(=O)N1CCC[C@H]1C(=O)N[C@H](C(=O)N[C@@H](CC(N)=O)C(=O)N[C@H](C(=O)NCC(=O)N[C@@H](CO)C(=O)N[C@@H](CC(N)=O)C(=O)N[C@H](C(=O)N1CCC[C@H]1C(N)=O)[C@@H](C)O)C(C)C)[C@@H](C)O
B5: N-alpha-[(S)-4-Carboxy-4-(19-carboxynonadecanoylamino)butyryl]-Glu-[Glu14,His17,Gln21,His35]-pramlintide (peptide)
peptide: {C20 diacid-γGlu}-EKCNTATCATQRLAEFLHHSSQNFGPILPPTNVGSHTY-NH2
modifications: disulfide 3-8; not fully specified; printed as N-alpha-[(S)-4-Carboxy-4-(19-carboxynonadecanoylamino)butyryl]-Glu-[Glu14,His17,Gln21,His35]-pramlintide
B6: N-alpha-[(S)-4-Carboxy-4-(19-carboxynonadecanoylamino)butyryl]-Glu-Arg-[Glu1,Pro37]-pramlintide (peptide)
peptide: {C20 diacid-γGlu}-ERECNTATCATQRLANFLVHSSNNFGPILPPTNVGSNTP-NH2
modifications: disulfide 4-9
SMILES: CC[C@H](C)[C@H](NC(=O)[C@@H]1CCCN1C(=O)CNC(=O)[C@H](Cc1ccccc1)NC(=O)[C@H](CC(N)=O)NC(=O)[C@H](CC(N)=O)NC(=O)[C@H](CO)NC(=O)[C@H](CO)NC(=O)[C@H](Cc1c[nH]cn1)NC(=O)[C@@H](NC(=O)[C@H](CC(C)C)NC(=O)[C@H](Cc1ccccc1)NC(=O)[C@H](CC(N)=O)NC(=O)[C@H](C)NC(=O)[C@H](CC(C)C)NC(=O)[C@H](CCCNC(=N)N)NC(=O)[C@H](CCC(N)=O)NC(=O)[C@@H](NC(=O)[C@H](C)NC(=O)[C@@H]1CSSC[C@H](NC(=O)[C@H](CCC(=O)O)NC(=O)[C@H](CCCNC(=N)N)NC(=O)[C@H](CCC(=O)O)NC(=O)CC[C@H](NC(=O)CCCCCCCCCCCCCCCCCCC(=O)O)C(=O)O)C(=O)N[C@@H](CC(N)=O)C(=O)N[C@@H]([C@@H](C)O)C(=O)N[C@@H](C)C(=O)N[C@@H]([C@@H](C)O)C(=O)N1)[C@@H](C)O)C(C)C)C(=O)N[C@@H](CC(C)C)C(=O)N1CCC[C@H]1C(=O)N1CCC[C@H]1C(=O)N[C@H](C(=O)N[C@@H](CC(N)=O)C(=O)N[C@H](C(=O)NCC(=O)N[C@@H](CO)C(=O)N[C@@H](CC(N)=O)C(=O)N[C@H](C(=O)N1CCC[C@H]1C(N)=O)[C@@H](C)O)C(C)C)[C@@H](C)O
B7: N-alpha-[(S)-4-Carboxy-4-(19-carboxynonadecanoylamino)butyryl]-Glu-Arg-[Glu1,Glu14,His17,Pro37]-pramlintide (peptide)
peptide: {C20 diacid-γGlu}-ERECNTATCATQRLAEFLHHSSNNFGPILPPTNVGSNTP-NH2
modifications: disulfide 4-9
SMILES: CC[C@H](C)[C@H](NC(=O)[C@@H]1CCCN1C(=O)CNC(=O)[C@H](Cc1ccccc1)NC(=O)[C@H](CC(N)=O)NC(=O)[C@H](CC(N)=O)NC(=O)[C@H](CO)NC(=O)[C@H](CO)NC(=O)[C@H](Cc1c[nH]cn1)NC(=O)[C@H](Cc1c[nH]cn1)NC(=O)[C@H](CC(C)C)NC(=O)[C@H](Cc1ccccc1)NC(=O)[C@H](CCC(=O)O)NC(=O)[C@H](C)NC(=O)[C@H](CC(C)C)NC(=O)[C@H](CCCNC(=N)N)NC(=O)[C@H](CCC(N)=O)NC(=O)[C@@H](NC(=O)[C@H](C)NC(=O)[C@@H]1CSSC[C@H](NC(=O)[C@H](CCC(=O)O)NC(=O)[C@H](CCCNC(=N)N)NC(=O)[C@H](CCC(=O)O)NC(=O)CC[C@H](NC(=O)CCCCCCCCCCCCCCCCCCC(=O)O)C(=O)O)C(=O)N[C@@H](CC(N)=O)C(=O)N[C@@H]([C@@H](C)O)C(=O)N[C@@H](C)C(=O)N[C@@H]([C@@H](C)O)C(=O)N1)[C@@H](C)O)C(=O)N[C@@H](CC(C)C)C(=O)N1CCC[C@H]1C(=O)N1CCC[C@H]1C(=O)N[C@H](C(=O)N[C@@H](CC(N)=O)C(=O)N[C@H](C(=O)NCC(=O)N[C@@H](CO)C(=O)N[C@@H](CC(N)=O)C(=O)N[C@H](C(=O)N1CCC[C@H]1C(N)=O)[C@@H](C)O)C(C)C)[C@@H](C)O

Legend:
[1] = molecular target: T1, human amylin 3(a) receptor (human …); experiment: cell-based or functional assay
[2] = molecular target: T2, human calcitonin (a) receptor; experiment: cell-based or functional assay

Binder	Amylin receptor human EC50 [1]	CTa receptor human EC50 [2]
B1	0.291 nM	0.266 nM
B2	0.938 nM	1.08 nM
B3	0.076 nM	0.101 nM
B4	0.0895 nM	0.367 nM
KCNTATCATQRLAEFLVHSSK([AEEA-AEEA-γGlu-19‑carboxyheptadecanoyl])NFGPILPSTNVGSHTY-NH2 (disulfide 2-7)	1.09 nM	0.48 nM
B5	0.391 nM	0.247 nM
B6	0.063 nM	0.061 nM
B7	0.136 nM	0.378 nM
